First the molecules themselves.
B1: Pol30p (PCNA), wild type, two-hybrid prey (pBL240-PCNA-Gal4AD) [S. cerevisiae] / Rrm3p, two-hybrid bait [S. cerevisiae] (parent)
chain 1: MLEAKFEEASLFKRIIDGFKDCVQLVNFQCKEDGIIAQAVDDSRVLLVSLEIGVEAFQEYRCDHPVTLGMDLTSLSKILRCGNNTDTLTLIADNTPDSIILLFEDTKKDRIAEYSLKLMDIDADFLKIEELQYDSTLSLPSSEFSKIVRDLSQLSDSINIMITKETIKFVADGDIGSGSVIIKPFVDMEHPETSIKLEMDQPVDLTFGAKYLLDIIKGSSLSDRVGIRLSSEAPALFQFDLKSGFLQFFLAPKFNDEE
chain 2: MFRSHASGNKKQWSKRSSNGSTPAASASGSHAYRQQTLSSFFMGCGKKSAAASKNSTTIIDLESGDEGNRNITAPPRPRLIRNNSSSLFSQSQGSFGDDDPDAEFKKLVDVPRLNSYKKSSRSLSMTSSLHKTASASTTQKTYHFDEDETLREVTSVKSNSRQLSFTSTINIEDSSMKLSTDSERPAKRSKPSMEFQGLKLTVPKKIKPLLRKTVSNMDSMNHRSASSPVVLTMEQERVVNLIVKKRTNVFYTGSAGTGKSVILQTIIRQLSSLYGKESIAITASTGLAAVTIGGSTLHKWSGIGIGNKTIDQLVKKIQSQKDLLAAWRYTKVLIIDEISMVDGNLLDKLEQIARRIRKNDDPFGGIQLVLTGDFFQLPPVAKKDEHNVVKFCFESEMWKRCIQKTILLTKVFRQQDNKLIDILNAIRYGELTVDIAKTIRNLNRDIDYADGIAPTELYATRREVELSNVKKLQSLPGDLYEFKAVDNAPERYQAILDSSLMVEKVVALKEDAQVMMLKNKPDVELVNGSLGKVLFFVTESLVVKMKEIYKIVDDEVVMDMRLVSRVIGNPLLKESKEFRQDLNARPLARLERLKILINYAVKISPHKEKFPYVRWTVGKNKYIHELMVPERFPIDIPRENVGLERTQIPLMLCWALSIHKAQGQTIQRLKVDLRRIFEAGQVYVALSRAVTMDTLQVLNFDPGKIRTNERVKDFYKRLETLK

Experimental findings from publication PMC10585736 are described below.

Variants of B1 are the subject of the first assay. In words: yeast two-hybrid (β-galactosidase). The note with it: with Rrm3p, prey Pol30-79p, parent: 1.3, read off a plot.
With chain 1 L126A I128A, the response (U/mg of protein) stood at 1.3.

Still in this assay, the particulars now being: with Rrm3p, prey Pol30-6p, parent: 1.3, read off a plot.
chain 1 D41A D42A: the response (U/mg of protein) is 0.58.

Still in this assay, the particulars now being: with Rrm3p, prey Pol30-8p, parent: 1.3, read off a plot.
On to chain 1 R61A D63A, for which the response (U/mg of protein) came out at 0.75.
